The supplement of paper PMC9170038

Tested on: MS2 coat protein
Experiment: apparent KD of MS2 coat protein; designed switch direction (-1 OFF switch, 1 ON switch): 1; higher = weaker reporter binding
Method in brief: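 Designed RNA switches were transcribed on Illumina chips by stalled E. coli RNA polymerase and titrated with SNAP-549-labelled MS2 coat protein from 0.7 or 1.5 nM, doubling to 3 µM. Step length ran from 0.8–1.5 h at the lowest concentration to 10–20 min at the highest. The apparent KD is the median over clusters for each design, from curve-fitted normalised cluster fluorescence.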

[1] = input ligand: microRNA oligo, concentration not stated
[2] = Eterna round: R95, input ligand: FMN 200 uM
[3] = Eterna round: R95, input ligand: microRNA oligo, concentration not stated
[4] = Eterna round: R95, input ligand: none

Sequence | apparent KD of MS2 coat protein (input ligand: FMN 200 uM) [nM] | apparent KD of MS2 coat protein [1] [nM] | apparent KD of MS2 coat protein (input ligand: none) [nM] | apparent KD of MS2 coat protein [2] [nM] | apparent KD of MS2 coat protein [3] [nM] | apparent KD of MS2 coat protein [4] [nM]
AACAGUCGACGAGGAUAUGGACGGACAGGUUUGCCUGUGCGGCUCACAUGAGGAUCACCCAUGUUCUAGAAGGCGUCACUGUGA [Matidia] (Eterna round: R96, puzzle: Same State NG 2) | 15.5 | 79.2 | 80.5 | – | – | –
UGUAAACAUGAGGAUCACCCAUGUAAUAUAAUGGGAGGAUAUCUGAAUUAAUUAAAUUAAGGAGAAGGCCUAAUGU [Mat - Same State 1 - Mod of Eli - D47] (puzzle: Same State 1) | – | – | – | 53.2 | 288 | 482
AUACAUAUCAGAGGAUAUCACGUCGUUUAGACGUGAGAAGGCUGAUCACACAUGAAUAUUAAUACAUGAGGAUCACCCAUGUAU [SSNG1/14-A3] (Eterna round: R96, puzzle: Same State NG 1) | 13.7 | 13.4 | 20.9 | – | – | –
AACAAUCUAUCUGAGGAUAUCAUGAAAAAAACAUGAGGAUCACCCAUGUGCAGGAAAACUGCAUAUGAGAAGGCAGAUAGAUUGA [salish99_SS2_r3_001] (Eterna round: R96, puzzle: Same State 2) | – | 490 | – | – | – | –
GGAGGGAGGGCGCAGGAUAUCGAUAAUGACACAUGAGGAUCACCCAUGUUUGGUAUUAGAAGGAACGAGAAGGGUGAGAGGAGGG [red_knee_arm] (puzzle: Same State 2) | – | – | – | 36.1 | 35.1 | 53.2
CGUAGGUGGCUGGAGGAUAUUCGAGUGGUAACAUGAGGAUCACCCAUGUGUCGCGCGGUACAUGAGGAGAAGGCUGGCGGCCUGC (puzzle: Same State 2) | – | – | – | 19.7 | 69.4 | 178
UAGUACAUGCUUUUUGUCUGUCUUAGAUAACAUGAGGAUCACCCAUGUAAGGUGAAAGUUAUAUAGUUUAUGAAUAU [JR_SHM208A_Sub058] (Eterna round: R96, puzzle: Sensor for hsa-mir-208a) | 242 | 309 | 241 | – | – | –
AGUCCAGCCUGAGCUGGACAAAUGCAUGUACAUGAGGAUCACCCAUGUUCAUGUACAAGCAUUUUGCUCGUCUUAAA [Sensor for hsa-mir-208a (JL zipper 55 mod - 61 to A)] (Eterna round: R96, puzzle: Sensor for hsa-mir-208a) | 330 | 13.5 | 346 | – | – | –
UUAUCUAUCCGAGGAUAUCCAUAUAAUUUACAUGAGGAUCACCCAUGUUAUUGGGAGUUUUUUUAGGAGAAGGCGGAUGUAGAU [JR_SSNG2_Sub052] (Eterna round: R96, puzzle: Same State NG 2) | 82.5 | 79.2 | 107 | – | – | –
AAAGAAGAAAGACAGGAUAUGGAUGGGUAAACAUGAGGAUCACCCAUGUAUAAGAAAGAAAGAAACCAGAAGGGUCAAAAGAAAA [Darius III] (Eterna round: R96, puzzle: Same State 2) | 68.7 | 217 | 253 | – | – | –
UGUUGUAUUACAGGAUAUCUAUUAUUUUUAUUUAGAGAAGGGUAUUCACAUGAGGAUCACCCAUGUAUAUACGAGGAAGUUGUG [JMF's solution 6] (Eterna round: R96, puzzle: Same State NG 1) | – | 42.7 | – | – | – | –
UGAAUGGUGAUAGGAUAUACAUGAGGAAUCCUCGUAGAAGGAUCAUGACAUGAGGAUCACCCAUGUAGCGCUCAGAAGAGCGCA [Mat - Same State NG 1 - JL mod - D53] (Eterna round: R96, puzzle: Same State NG 1) | 129 | 42.4 | 83.9 | – | – | –
UGACACACGGCAGGAUAUCCUUAGCAAAGCUAAGGAGAAGGGCCUCAUGUCGUGGAAACGUGACAUGAGGAUCACCCAUGUUGC [Omei SS(NG)1 Cv7] (Eterna round: R96, puzzle: Same State NG 1) | 154 | 18.1 | 85 | – | – | –
GAGCCAGUCCGAGGAUAUUCAUAUACAUGAGGAUCACCCAUGUAGGCUCAGAAAAGAGAGCCUUGGGAGAAGGCGGACUGGCUC [Xeonanisa<<4] (Eterna round: R96, puzzle: Same State NG 2) | 8.38 | 27.3 | 50.8 | – | – | –
UGCUACUGGGUAGGAUAUUUAGGAUAUGGGAAAGACUAAGUCUGUAGGUCACCUAACCCAGAAGGAGAGAAGGACCAUUCAGCU [pwkr ssNG2 2FMN + F9.33] (Eterna round: R96, puzzle: Same State NG 2) | 29.5 | 55.3 | 32.7 | – | – | –
AUAAGUUCGAUGCUCGUCUCUCCGUACAAACAUGAGGAUCACCCAUGUGACUGGGCAAUAGCCCAAUCAGUAUGGCC [Beongetiqu] (puzzle: Sensor for hsa-mir-208a) | – | – | – | 34.8 | 22.8 | 34.4

Sequence | apparent KD of MS2 coat protein (input ligand: FMN 200 uM) [nM] | apparent KD of MS2 coat protein [1] [nM] | apparent KD of MS2 coat protein (input ligand: none) [nM] | apparent KD of MS2 coat protein [2] [nM] | apparent KD of MS2 coat protein [3] [nM] | apparent KD of MS2 coat protein [4] [nM]
GUGGUCAGACAUGAGGAUCACCCAUGUGGAAUAAAUAAGGACUAGGAUAUGUAAUAUAGGAUAUAACAGAAGGAGUGGUUGGUG (Eterna round: R96, puzzle: Same State NG 3) | 66.8 | 42.1 | 60.2 | – | – | –
UUGCGCUGUCGAGAGGAUAUGCGGUGAUGGACAUGAGGAUCACCCAUGUUAGCGAUAGCAUUACGGUAGAAGGCUCUUCAGCUGC [salish99_ss2_r3_095] (puzzle: Same State 2) | – | – | – | 16.2 | 21.8 | 26.2
AGUCCAGCCUGAGCUGGACAAAAGCAUGUACAUGAGGAUCACCCAUGUUCAUGUACAAGCUUUUUGCUCGUCUUUAA [salish99_208a_r3_096x] (puzzle: Sensor for hsa-mir-208a) | – | – | – | 658 | 14.5 | 985
ACGUGGCUGCCGCAGGAUAUACCCUGUUCCACAUGAGGAUCACCCAUGUUUACGAACUAUGAGAGGUAGAAGGGUGGAUGUCAUU [Beenvean] (puzzle: Same State 2) | – | – | – | – | 23.7 | –
GGCGAAUAAACAUGAGGAUCACCCAUGUAGCGGAGACGCAAUGAGGAUAUCGAUGGGUUUCCCGUCGAGAAGGCAUGGGUCGCC [JL SSNG3 3.93 mod 1] (Eterna round: R96, puzzle: Same State NG 3) | 20.8 | 99.6 | 140 | – | – | –
CUCAACAACACAGGAUAUCCAGGUAAAAGACCUGGAGAAGGGUGACCAACAUGAGGAUCACCCAUGUGACAGCCAGGCUGUCUG [Isbitiqu] (Eterna round: R96, puzzle: Same State NG 1) | 87.8 | 4.41 | 371 | – | – | –
GUGGUCAGACAUGAGGAUCACCCAUGUGGAAUAAAUAACAGACAGGAUAUUUAAUAUAGGAUAUAAAAGAAGGGUCGAUUGGUG (Eterna round: R96, puzzle: Same State NG 3) | 110 | 98.9 | 116 | – | – | –
AGCUAUUAAUCAGGAUAUGGUCACAUGAGGAUCACCCAUGUAUAGAUGAUUGAAUGUGGUCUACACUAGAAGGGAUUGCUAACA [SameState NG2 #58] (Eterna round: R96, puzzle: Same State NG 2) | 167 | 96.1 | 150 | – | – | –
GUAAUACAUGAGGAUCACCCAUGUCAAUGUAGUCGAGGAUAUGGGUAGCUAUGUGGCUUACUAGAAGGCGACGAGC [Same State 1 - Mod of Vinnie Teenbexe v.4] (puzzle: Same State 1) | – | – | – | 90.3 | 157 | 251
GCUCGACGUUCGGCCUACAUGAGGAUCACCCAUGUGACUGGGCAGGAUAUCUAAAUGCAGAAUGUAGAGAAGGGCCCGUCGAGC [SameState NG3 #51] (Eterna round: R96, puzzle: Same State NG 3) | 168 | 43.4 | 190 | – | – | –
CGGCGCUGUCGAGAGGAUAUGCGGUGAUGGACAUGAGGAUCACCCAUGUUAGCGAUAGCAUCACGGUAGAAGGCUCCACAGCCGU [Soteed Omei mod 13] (puzzle: Same State 2) | – | – | – | – | 23 | –
GAGAGAGGAAGCGAGGAUAUCGUGUUAGGUACAUGAGGAUCACCCAUGUUGUAGGUAGAGGUAGGCGAGAAGGCGCAGGAGAGGU [JR_SS2_Sub095] (puzzle: Same State 2) | – | – | – | 26.7 | 26.4 | 32.2
GGGCAGAGGGACAAGGAUAUGUCAGGAGAGACAUGAGGAUCACCCAUGUGGAGGUUGGAGCAGAGACAGAAGGUGUACGGAGCGA [JR_SS2_Sub011] (puzzle: Same State 2) | – | – | – | 34.4 | 105 | 107
CAGCGCUGUCGAGAGGAUAUGCGGUGAUGGACAUGAGGAUCACCCAUGUUAGCGACAGCAUCACGGCAGAAGGCUCUAUCGCUGC [Soteed Omei mod 29] (puzzle: Same State 2) | – | – | – | 24.2 | 39.5 | 48.9
AUUAAACAUGAGGAUCACCCAUGUCAACAAAGUCGAGGAUAUGGGCAAAUAAAAUAAGAACCAGAAGGCGUAUAAU [salish99_ss1_r3_077] (puzzle: Same State 1) | – | – | – | 75.9 | 363 | 636
UUGGUGUAGAUACAGGAUAUGUUGCUUGUAACAUGAGGAUCACCCAUGUAUCUAUGAGAUUAAAUGCAGAAGGGUGCACAUCACU [salish99_ss2_r3_089] (puzzle: Same State 2) | – | – | – | 390 | 582 | 1020
